Results reported in publication doi:10.1101/2025.05.07.652675 (bioRxiv, 2025).
Numbering of substitutions follows the chain as printed. In names and notes the source's numbering stands.

T1: SUMO-FtsZ (6×His-SUMO fusion of full length FtsZ) (E. coli, UniProt P0A9A6 1-383)
T1 sequence: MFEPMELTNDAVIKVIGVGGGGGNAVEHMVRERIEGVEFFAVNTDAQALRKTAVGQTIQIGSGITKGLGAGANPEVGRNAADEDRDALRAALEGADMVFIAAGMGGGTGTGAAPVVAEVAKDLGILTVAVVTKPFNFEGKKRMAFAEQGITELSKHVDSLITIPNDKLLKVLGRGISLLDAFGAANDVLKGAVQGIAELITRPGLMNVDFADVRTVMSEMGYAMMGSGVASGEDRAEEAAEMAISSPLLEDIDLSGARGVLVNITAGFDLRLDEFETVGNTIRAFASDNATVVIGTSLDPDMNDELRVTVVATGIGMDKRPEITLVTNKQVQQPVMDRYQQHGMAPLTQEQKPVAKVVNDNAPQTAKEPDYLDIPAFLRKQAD

B1: 6×His-ZapC (natural protein)
chain: not shown
B2: FtsZ^1-370 (domain or fragment)
chain: MFEPMELTNDAVIKVIGVGGGGGNAVEHMVRERIEGVEFFAVNTDAQALRKTAVGQTIQIGSGITKGLGAGANPEVGRNAADEDRDALRAALEGADMVFIAAGMGGGTGTGAAPVVAEVAKDLGILTVAVVTKPFNFEGKKRMAFAEQGITELSKHVDSLITIPNDKLLKVLGRGISLLDAFGAANDVLKGAVQGIAELITRPGLMNVDFADVRTVMSEMGYAMMGSGVASGEDRAEEAAEMAISSPLLEDIDLSGARGVLVNITAGFDLRLDEFETVGNTIRAFASDNATVVIGTSLDPDMNDELRVTVVATGIGMDKRPEITLVTNKQVQQPVMDRYQQHGMAPLTQEQKPVAKVVNDNAPQTAKEPD
B3: SUMO-FtsZ^316-383 (domain or fragment)
chain: GMDKRPEITLVTNKQVQQPVMDRYQQHGMAPLTQEQKPVAKVVNDNAPQTAKEPDYLDIPAFLRKQAD
B4: ZapC (untagged) (natural protein)
chain: not shown
B5: FtsZ (wild type, untagged) (natural protein)
chain: T1 sequence
B6: FtsZ^D360Y (untagged) (natural protein)
chain: T1 sequence with D360Y
B7: FtsZ^I323L (untagged) (natural protein)
chain: T1 sequence with I323L
B8: FtsZ^F285S (untagged) (natural protein)
chain: T1 sequence with F285S
B9: FtsZ^A376T (untagged) (natural protein)
chain: T1 sequence with A376T

Experiments:
[1] = molecular target: B5; experiment: BLI
[2] = molecular target: B8; experiment: BLI
[3] = molecular target: B7; experiment: co-sedimentation
[4] = molecular target: B6; experiment: co-sedimentation
[5] = molecular target: B9; experiment: co-sedimentation
[6] = molecular target: B1; experiment: BLI
[7] = molecular target: B4; experiment: BLI
[8] = molecular target: T1, SUMO-FtsZ (6×His-SUMO fusion of full …); experiment: BLI
[9] = molecular target: 6×His-ZapC F30D K94D double mutant (E. coli, UniProt P75862 1-180, F30D | K94D); experiment: BLI
[10] = molecular target: the molecule itself; experiment: sedimentation of polymers by ultracentrifugation
[11] = molecular target: the molecule itself; experiment: negative stain electron microscopy

Binder: B1
Kd [1]: 0.39 µM
Kd [2]: 6.37 µM
binding result [3]: binds
binding result [4]: binds
binding result [5]: binds

Binder: B2
binding affinity relative to wild-type FtsZ (fold lower) [6]: ~3 fold

Binder: B3
Kd [7]: 10 µM

Binder: B4
Kd [8]: 1.5 µM

Binder: B5
Kd relative to wild-type ZapC (times higher) [9]: 12 times
binding result [10]: binds

Binder: B6
binding result [11]: binds

Binder: B7
binding result [11]: binds

Binder: B8
binding result [10]: binds

Binder: B9
binding result [11]: binds
